Consider seven molecules from patent US20150344570A1 (published 2015).

In experiment [1] the target is T1, FcγRIIIa (human, UniProt P08637 17-208).
T1 construct: extracellular domain; Soluble extracellular domain with a C-terminal His tag; also called FcgRIIIa; 3a; not shown: His tag attached to the C terminus
Description: SPR; He/Con_3a (FcγRIIIa) divided by He/Con_2b (FcγRIIb). (In SPR one partner is held on a chip, and binding of the other changes the refractive index at the surface.)

In the next experiment the target is T2, FcγRIIb (human, UniProt P31994 43-217).
T2 construct: extracellular domain; Soluble extracellular domain with a C-terminal His tag, expressed in FreeStyle293 cells; also called FcgRIIb; 2b; not shown: His tag attached to the C terminus
T2 sequence (looked up): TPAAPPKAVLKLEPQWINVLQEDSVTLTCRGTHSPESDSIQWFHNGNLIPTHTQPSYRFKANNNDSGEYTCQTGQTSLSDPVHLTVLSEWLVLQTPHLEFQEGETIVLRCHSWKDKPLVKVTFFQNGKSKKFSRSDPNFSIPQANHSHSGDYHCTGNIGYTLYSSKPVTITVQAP
Briefly: SPR (Biacore), antibody captured on chip, FcγR as analyte.

In experiment [2] the target is T1, FcγRIIIa. The experiment is described as above.

T1 sequence (P08637 17-208): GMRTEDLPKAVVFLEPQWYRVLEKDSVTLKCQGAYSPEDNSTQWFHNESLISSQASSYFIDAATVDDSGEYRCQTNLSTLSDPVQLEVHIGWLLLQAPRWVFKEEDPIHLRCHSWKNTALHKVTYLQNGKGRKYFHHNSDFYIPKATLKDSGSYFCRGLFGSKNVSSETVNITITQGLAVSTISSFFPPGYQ

B1: GpH7-A5/GpH7-B3 variant S239_06M/GpL16-k0 (antibody, human IgG1, kappa)
heavy 1: not shown
heavy 2: not shown
light: DIVMTQSPLSLPVTPGEPASISCQASESLVHSNRNTYLHWYLQKPGQSPQLLIYKVSNRFSGVPDRFSGSGSGTDFTLKISRVEAEDVGVYYCSQNTHVPPTFGQGTKVEIERTVAAPSVFIFPPSDEQLKSGTASVVCLLNNFYPREAKVQWKVDNALQSGNSQESVTEQDSKDSTYSLSSTLTLSKADYEKHKVYACEVTHQGLSSPVTKSFNRGEC
notes: Heterodimerized anti-glypican-3 IgG1; the mutation is in the GpH7-B3 chain only; also called He Ab
Regarding B1, the “He_3a/2b (IIIa/IIb)” value with FcγRIIIa [1] is 0.78 ratio. In addition, in the experiment with FcγRIIb, the He/Con_2b was 101 relative binding, GpH7-A5/GpH7-B3/GpL16-k0 = 100. The He/Con_3a with FcγRIIIa [2] was 78.2 relative binding, GpH7-A5/GpH7-B3/GpL16-k0 = 100.

B2: GpH7-A5/GpH7-B3 variant S239_11K/GpL16-k0 (antibody, human IgG1, kappa)
heavy 1: not shown
heavy 2: not shown
light: DIVMTQSPLSLPVTPGEPASISCQASESLVHSNRNTYLHWYLQKPGQSPQLLIYKVSNRFSGVPDRFSGSGSGTDFTLKISRVEAEDVGVYYCSQNTHVPPTFGQGTKVEIERTVAAPSVFIFPPSDEQLKSGTASVVCLLNNFYPREAKVQWKVDNALQSGNSQESVTEQDSKDSTYSLSSTLTLSKADYEKHKVYACEVTHQGLSSPVTKSFNRGEC
notes: as for B1
For the molecule B2, the “He_3a/2b (IIIa/IIb)” value with FcγRIIIa [1] was found to be 0.48 ratio. Further, the He/Con_2b with FcγRIIb was 24.7 relative binding, GpH7-A5/GpH7-B3/GpL16-k0 = 100. Also, the He/Con_3a in the experiment with FcγRIIIa [2] is 11.9 relative binding, GpH7-A5/GpH7-B3/GpL16-k0 = 100.

B3: GpH7-A5/GpH7-B3 variant S239_15Y/GpL16-k0 (antibody, human IgG1, kappa)
heavy 1: not shown
heavy 2: not shown
light: DIVMTQSPLSLPVTPGEPASISCQASESLVHSNRNTYLHWYLQKPGQSPQLLIYKVSNRFSGVPDRFSGSGSGTDFTLKISRVEAEDVGVYYCSQNTHVPPTFGQGTKVEIERTVAAPSVFIFPPSDEQLKSGTASVVCLLNNFYPREAKVQWKVDNALQSGNSQESVTEQDSKDSTYSLSSTLTLSKADYEKHKVYACEVTHQGLSSPVTKSFNRGEC
notes: as for B1
Regarding B3, in the experiment with FcγRIIIa [1], the “He_3a/2b (IIIa/IIb)” value stood at 0.73 ratio. Besides, in the experiment with FcγRIIb, the He/Con_2b was 34.9 relative binding, GpH7-A5/GpH7-B3/GpL16-k0 = 100. For the same molecule, the He/Con_3a with FcγRIIIa [2] is 25.6 relative binding, GpH7-A5/GpH7-B3/GpL16-k0 = 100.

B4: GpH7-A5/GpH7-B3 variant S239_08L/GpL16-k0 (antibody, human IgG1, kappa)
heavy 1: not shown
heavy 2: not shown
light: DIVMTQSPLSLPVTPGEPASISCQASESLVHSNRNTYLHWYLQKPGQSPQLLIYKVSNRFSGVPDRFSGSGSGTDFTLKISRVEAEDVGVYYCSQNTHVPPTFGQGTKVEIERTVAAPSVFIFPPSDEQLKSGTASVVCLLNNFYPREAKVQWKVDNALQSGNSQESVTEQDSKDSTYSLSSTLTLSKADYEKHKVYACEVTHQGLSSPVTKSFNRGEC
notes: as for B1
As for B4, the “He_3a/2b (IIIa/IIb)” value in the experiment with FcγRIIIa [1] turned out to be 0.68 ratio. Besides, the He/Con_2b with FcγRIIb is 140 relative binding, GpH7-A5/GpH7-B3/GpL16-k0 = 100. Also, the He/Con_3a with FcγRIIIa [2] is 95.3 relative binding, GpH7-A5/GpH7-B3/GpL16-k0 = 100.

B5: GpH7-A5/GpH7-B3 variant S239_12R/GpL16-k0 (antibody, human IgG1, kappa)
heavy 1: not shown
heavy 2: not shown
light: DIVMTQSPLSLPVTPGEPASISCQASESLVHSNRNTYLHWYLQKPGQSPQLLIYKVSNRFSGVPDRFSGSGSGTDFTLKISRVEAEDVGVYYCSQNTHVPPTFGQGTKVEIERTVAAPSVFIFPPSDEQLKSGTASVVCLLNNFYPREAKVQWKVDNALQSGNSQESVTEQDSKDSTYSLSSTLTLSKADYEKHKVYACEVTHQGLSSPVTKSFNRGEC
notes: as for B1
In the case of B5, the “He_3a/2b (IIIa/IIb)” value in the experiment with FcγRIIIa [1] is 0.44 ratio. The He/Con_2b with FcγRIIb is 39.1 relative binding, GpH7-A5/GpH7-B3/GpL16-k0 = 100. Also, the He/Con_3a with FcγRIIIa [2] is 17 relative binding, GpH7-A5/GpH7-B3/GpL16-k0 = 100.

B6: GpH7-A5/GpH7-B3 variant S239_16H/GpL16-k0 (antibody, human IgG1, kappa)
heavy 1: not shown
heavy 2: not shown
light: DIVMTQSPLSLPVTPGEPASISCQASESLVHSNRNTYLHWYLQKPGQSPQLLIYKVSNRFSGVPDRFSGSGSGTDFTLKISRVEAEDVGVYYCSQNTHVPPTFGQGTKVEIERTVAAPSVFIFPPSDEQLKSGTASVVCLLNNFYPREAKVQWKVDNALQSGNSQESVTEQDSKDSTYSLSSTLTLSKADYEKHKVYACEVTHQGLSSPVTKSFNRGEC
notes: as for B1
Regarding B6, in the experiment with FcγRIIIa [1], the “He_3a/2b (IIIa/IIb)” value was 0.59 ratio. For the same molecule, the He/Con_2b with FcγRIIb is 49.4 relative binding, GpH7-A5/GpH7-B3/GpL16-k0 = 100. The He/Con_3a with FcγRIIIa [2] was 29.2 relative binding, GpH7-A5/GpH7-B3/GpL16-k0 = 100.

B7: GpH7-A5/GpH7-B3 variant S239_07I/GpL16-k0 (antibody, human IgG1, kappa)
heavy 1: not shown
heavy 2: not shown
light: DIVMTQSPLSLPVTPGEPASISCQASESLVHSNRNTYLHWYLQKPGQSPQLLIYKVSNRFSGVPDRFSGSGSGTDFTLKISRVEAEDVGVYYCSQNTHVPPTFGQGTKVEIERTVAAPSVFIFPPSDEQLKSGTASVVCLLNNFYPREAKVQWKVDNALQSGNSQESVTEQDSKDSTYSLSSTLTLSKADYEKHKVYACEVTHQGLSSPVTKSFNRGEC
notes: as for B1
B7: the “He_3a/2b (IIIa/IIb)” value with FcγRIIIa [1] stood at 0.74 ratio. The He/Con_2b with FcγRIIb is 107 relative binding, GpH7-A5/GpH7-B3/GpL16-k0 = 100. Further, the He/Con_3a with FcγRIIIa [2] was 79.3 relative binding, GpH7-A5/GpH7-B3/GpL16-k0 = 100.
